US20240200091A1, “USE OF PROTOPORPHYRINOGEN OXIDASE” (BEIJING DABEINONG BIOTECHNOLOGY CO., LTD., priority 2021, published 2024)

Experiments:
Format in all cases: in vivo
[1] = test system: Arabidopsis thaliana T1 plants; assay: oxyfluorfen tolerance of transgenic Arabidopsis thaliana T1 plants (spray, grade of pesticide damage); conditions: 7 DAT, number of plants of 24 per genotype, grades
Text: (§1) The transformed Arabidopsis thaliana T1 plants were initially selected using glufosinate herbicide. The Arabidopsis thaliana T1 plants (PPO1A) into which the PPO1A nucleotide sequence was introduced, the Arabidopsis thaliana T1 plants (PPO2A) into which the PPO2A nucleotide sequence was introduced, the Arabidopsis thaliana T1 plants (PPO3A) into which the PPO3A nucleotide sequence was introduced, the Arabidopsis thaliana T1 plants (PPO4A) into which the PPO4A nucleotide sequence was introduced, the Arabidopsis thaliana T1 plants (PPO5A) into which the PPO5A nucleotide sequence was introduced, the Arabidopsis thaliana T1 plants (PPO6A) into which the PPO6A nucleotide sequence was introduced, the Arabidopsis thaliana T1 plants (PPO7A) into which the PPO7A nucleotide sequence was introduced, the Arabidopsis thaliana T1 plants (PPO8A) into which the PPO8A nucleotide sequence was introduced, the Arabidopsis thaliana T1 plants (PPO9A) into which the PPO9A nucleotide sequence was introduced, the Arabidopsis thaliana T1 plants (PPO10A) into which the […] nucleotide sequence was introduced, the Arabidopsis thaliana T1 plants (PPO11A) into which the PPO11A nucleotide sequence was introduced, the Arabidopsis thaliana T1 plants (PPO12A) into which the PPO12A nucleotide sequence was introduced, the Arabidopsis thaliana T1 plants (PPO13A) into which the PPO13A nucleotide sequence was introduced, the Arabidopsis thaliana T1 plants (PPO14A) into which the PPO14A nucleotide sequence was introduced, the Arabidopsis thaliana T1 plants (PPO-ATA) into which the PPO-ATA nucleotide sequence was introduced, the Arabidopsis thaliana T1 plants (PPO-APA) into which the PPO-APA nucleotide sequence was introduced, the Arabidopsis thaliana T1 plants (control vector) into which the control vector was introduced, and the wild-type Arabidopsis thaliana plants (CK) (with 24 plants being included in each genotype) (18 days after sowing) were sprayed with oxyfluorfen at three concentrations (180 g ai/ha (one-fold field concentration, 1×), 720 g ai/ha (four-fold field concentration, 4×), and 0 g ai/ha (water, 0×)), saflufenacil at three concentrations (25 g ai/ha (one-fold field concentration, 1×), 100 g ai/ha (four-fold field concentration, 4×), and 0 g ai/ha (water, 0×)), flumioxazin at three concentrations (60 g ai/ha (one-fold field concentration, 1×), 240 g ai/ha (four-fold field concentration, 4×), and 0 g ai/ha (water, 0×), and sulfentrazone at three concentrations (450 g ai/ha (one-fold field concentration, 1×), 900 g ai/ha (two-fold field concentration, 2×), and 0 g ai/ha (water, 0×) to determine the tolerance of Arabidopsis thaliana to the herbicides. After 7 days of spraying (7 DAT), the damage level of each plant caused by the herbicide was evaluated according to the average of the damage levels (%) of plants (the average of the damage levels (%) of plants=the injured leaf area/the total leaf area×[…]), i.e., the grade of pesticide damage: grade 0 means that the growth status of plants is essentially consistent with those sprayed with the blank solvent (water); grade 1 means that the average of the damage levels of plants is less than 10%; grade 2 means that the average of the damage levels of plants is greater than […]; and grade 3 means that the average of the damage levels of plants is 100%. The plants having a growth status falling within grades 0 and 1 are classified as highly resistant plants; those having a growth status falling within grade 2 are classified as poorly resistant plants; and those having a growth status falling within grade 3 are classified as non-resistant plants.

[2] = test system: Arabidopsis thaliana T1 plants; assay: saflufenacil tolerance of transgenic Arabidopsis thaliana T1 plants (spray, grade of pesticide damage); conditions: for The grade of pesticide damage/plant: grade 0 / The grade of pesticide damage/plant: grade 1 / The grade of pesticide damage/plant: grade 2 / The grade of pesticide damage/plant: grade 3: 7 DAT, number of plants of 24 per genotype, grades
Text: as §1

[3] = test system: Arabidopsis thaliana T1 plants; assay: flumioxazin tolerance of transgenic Arabidopsis thaliana T1 plants (spray, grade of pesticide damage); conditions: 7 DAT, number of plants of 24 per genotype, grades
Text: as §1

[4] = test system: Arabidopsis thaliana T1 plants; assay: sulfentrazone tolerance of transgenic Arabidopsis thaliana T1 plants (spray, grade of pesticide damage); conditions: 7 DAT, number of plants of 24 per genotype, grades
Text: as §1

[5] = saflufenacil at four-fold field concentration, of 24 plants

Row | Molecule | The grade of pesticide damage/plant: grade 0 ([1]; oxyfluorfen 180 g ai/ha (1×)) | The grade of pesticide damage/plant: grade 1 ([1]; oxyfluorfen 180 g ai/ha (1×)) | The grade of pesticide damage/plant: grade 2 ([1]; oxyfluorfen 180 g ai/ha (1×)) | The grade of pesticide damage/plant: grade 3 ([1]; oxyfluorfen 180 g ai/ha (1×)) | The grade of pesticide damage/plant: grade 0 ([1]; oxyfluorfen 720 g ai/ha (4×)) | The grade of pesticide damage/plant: grade 1 ([1]; oxyfluorfen 720 g ai/ha (4×)) | The grade of pesticide damage/plant: grade 2 ([1]; oxyfluorfen 720 g ai/ha (4×)) | The grade of pesticide damage/plant: grade 3 ([1]; oxyfluorfen 720 g ai/ha (4×)) | The grade of pesticide damage/plant: grade 0 ([2]; saflufenacil 25 g ai/ha (1×)) | The grade of pesticide damage/plant: grade 1 ([2]; saflufenacil 25 g ai/ha (1×)) | The grade of pesticide damage/plant: grade 2 ([2]; saflufenacil 25 g ai/ha (1×)) | The grade of pesticide damage/plant: grade 3 ([2]; saflufenacil 25 g ai/ha (1×)) | The grade of pesticide damage/plant: grade 0 ([2]; saflufenacil 100 g ai/ha (4×)) | The grade of pesticide damage/plant: grade 1 ([2]; saflufenacil 100 g ai/ha (4×)) | The grade of pesticide damage/plant: grade 2 ([2]; saflufenacil 100 g ai/ha (4×)) | The grade of pesticide damage/plant: grade 3 ([2]; saflufenacil 100 g ai/ha (4×)) | The grade of pesticide damage/plant: grade 0 ([3]; flumioxazin 60 g ai/ha (1×)) | The grade of pesticide damage/plant: grade 1 ([3]; flumioxazin 60 g ai/ha (1×)) | The grade of pesticide damage/plant: grade 2 ([3]; flumioxazin 60 g ai/ha (1×)) | The grade of pesticide damage/plant: grade 3 ([3]; flumioxazin 60 g ai/ha (1×)) | other results
1 | PPO2A: nucleotide sequence encoding microbial protoporphyrinogen oxidase PPO2 (SEQ ID NO:2), Arabidopsis thaliana/soybean common codon usage bias (nucleic acid, PPO2A Nucleotide Sequence) DNA: ATGAGAGCCTTGCTTCTCTACAGCAGTCAAGAAGGGCAGACAAGAAAAATCATTCAGAGAATAGCAGCTCAAATGCCTGAGTACACTTGTGAAGTTCAAGATTTGCATCAATCAATAGATATTGATTGGGCCGAGTATGACAAAGTTTTAATTGGTGCATCCATCCGGTATGGACGTTTGAACCCTGCACTTTACAGGTTCATTGAGCATCACCTCGTTGGTTTGACCTCAAGGAAGGCTGCTTTCTTCTGCGTAAATCTTACCGCAAGGAAAGAACAACAAGGGAAAGACACTCCACAGGGCTCTGCATATATTCAAACATTTTTGAAGAAGAGTGCTTGGCAACCCGAAAGGATTGCTGTTTTTGCTGGTGCCCTTTATTATCCAAGATACAGATGGTTTGATAAGATGATGATCCGACTCATCATGACGTTAACTGGAGGAGAAACTGATACATCTCAGGAGGTGGAATATACAAACTGGGATAAAGTCGTGAAGTTTGCAGAGCAGTTTCGGAATTGGTGA | 24 plant | 0 plant | 0 plant | 0 plant | 20 plant | 4 plant | 0 plant | 0 plant | 24 plant | 0 plant | 0 plant | 0 plant | 6 plant | 18 plant | 0 plant | 0 plant | 24 plant | 0 plant | 0 plant | 0 plant | The grade of pesticide damage/plant: grade 0 ([3]; flumioxazin 240 g ai/ha (4×)): 24 plant; The grade of pesticide damage/plant: grade 1 ([3]; flumioxazin 240 g ai/ha (4×)): 0 plant; The grade of pesticide damage/plant: grade 2 ([3]; flumioxazin 240 g ai/ha (4×)): 0 plant; The grade of pesticide damage/plant: grade 3 ([3]; flumioxazin 240 g ai/ha (4×)): 0 plant; The grade of pesticide: grade 0 ([4]; sulfentrazone 450 g ai/ha (1×)): 24; The grade of pesticide: grade 1 ([4]; sulfentrazone 450 g ai/ha (1×)): 0; The grade of pesticide: grade 2 ([4]; sulfentrazone 450 g ai/ha (1×)): 0; The grade of pesticide: grade 3 ([4]; sulfentrazone 450 g ai/ha (1×)): 0; The grade of pesticide: grade 0 ([4]; sulfentrazone 900 g ai/ha (2×)): 20; The grade of pesticide: grade 1 ([4]; sulfentrazone 900 g ai/ha (2×)): 4; The grade of pesticide: grade 2 ([4]; sulfentrazone 900 g ai/ha (2×)): 0; The grade of pesticide: grade 3 ([4]; sulfentrazone 900 g ai/ha (2×)): 0
2 | PPO8A: nucleotide sequence encoding microbial protoporphyrinogen oxidase PPO8 (SEQ ID NO:8), Arabidopsis thaliana/soybean common codon usage bias (nucleic acid, The nucleotide sequence of PPO8A) DNA: ATGTCAAATGAGACACAAGCCAAACAAGCTGAAACGAAACAGACTGAGTCTTCTGTCGTAAGCAAAACGCTGGTGTTGTACTCGTCCGTCGATGGTCAAACCTTAAAGATCATTAATCGTATTAAGCAGACCCTGACAGGAGAAGTTATTGTTTTGAATGTTGATGATAATCCAACTATCGATTTTAGCCTTTATCAGAAGGTCTTGATTGGAGCATCAATCCGGTATGGGAACTTTAGACCGAACATCATAAAGTTTGTTAATCAGCATAAAACACAACTTGACGCGGTGTGCAACGCTTTCTTCGTGGTTTGTCTCACAGCAAGAAAACCAGAGAAAGCTGTTCCTGAAAACAATGCATACATGAAGAAATTTGATCAGCTAAGTCAATGGCAACCTCAGTTCAAGGGAGTATTCGCGGGTGCTTTATTGTATTCACGATACAACTGGTGGCAGACACTTCTCATACAACTAATAATGAAGATGACTGGTGGCAGTACTGACAAAACTCAAGATATTGAGCTTACCGATTGGGAAAAGGTGGATTCTTTCGCACAAGACTTTGCTGCCAGGTGA | 24 plant | 0 plant | 0 plant | 0 plant | 20 plant | 4 plant | 0 plant | 0 plant | 24 plant | 0 plant | 0 plant | 0 plant | 8 plant | 14 plant | 2 plant | 0 plant | 24 plant | 0 plant | 0 plant | 0 plant | plants that exhibited high-resistant tolerance [2, 5]: 22 plants; plants that exhibited moderate- or poor-resistant tolerance [2, 5]: 2 plants; The grade of pesticide damage/plant: grade 0 ([3]; flumioxazin 240 g ai/ha (4×)): 23 plant; The grade of pesticide damage/plant: grade 1 ([3]; flumioxazin 240 g ai/ha (4×)): 1 plant; The grade of pesticide damage/plant: grade 2 ([3]; flumioxazin 240 g ai/ha (4×)): 0 plant; The grade of pesticide damage/plant: grade 3 ([3]; flumioxazin 240 g ai/ha (4×)): 0 plant; The grade of pesticide: grade 0 ([4]; sulfentrazone 450 g ai/ha (1×)): 24; The grade of pesticide: grade 1 ([4]; sulfentrazone 450 g ai/ha (1×)): 0; The grade of pesticide: grade 2 ([4]; sulfentrazone 450 g ai/ha (1×)): 0; The grade of pesticide: grade 3 ([4]; sulfentrazone 450 g ai/ha (1×)): 0; The grade of pesticide: grade 0 ([4]; sulfentrazone 900 g ai/ha (2×)): 22; The grade of pesticide: grade 1 ([4]; sulfentrazone 900 g ai/ha (2×)): 2; The grade of pesticide: grade 2 ([4]; sulfentrazone 900 g ai/ha (2×)): 0; The grade of pesticide: grade 3 ([4]; sulfentrazone 900 g ai/ha (2×)): 0
